Reference: patent publication US9238802B2, “E. coli transformant, method for producing flavin-bound glucose dehydrogenase using the same, and mutant flavin-bound glucose dehydrogenases” (KIKKOMAN CORPORATION, priority 2010, dated 2016)

B1: GOD derived from Aspergillus niger: commercial glucose oxidase derived from Aspergillus niger (GOD, biozyme laboratories) (protein, UniProt P13006 17-605, looked up)
Glucose oxidase: LPHYIRSNGIEASLLTDPKDVSGRTVDYIIAGGGLTGLTTAARLTENPNISVLVIESGSYESDRGPIIEDLNAYGDIFGSSVDHAYETVELATNNQTALIRSGNGLGGSTLVNGGTWTRPHKAQVDSWETVFGNEGWNWDNVAAYSLQAERARAPNAKQIAAGHYFNASCHGVNGTVHAGPRDTGDDYSPIVKALMSAVEDRGVPTKKDFGCGDPHGVSMFPNTLHEDQVRSDAAREWLLPNYQRPNLQVLTGQYVGKVLLSQNGTTPRAVGVEFGTHKGNTHNVYAKHEVLLAAGSAVSPTILEYSGIGMKSILEPLGIDTVVDLPVGLNLQDQTTATVRSRITSAGAGQGQAAWFATFNETFGDYSEKAHELLNTKLEQWAEEAVARGGFHNTTALLIQYENYRDWIVNHNVAYSELFLDTAGVASFDVWDLLPFTRGYVHILDKDPYLHHFAYDPQYFLNELDLLGQAAATQLARNISNSGAMQTYFAGETIPGDNLAYDADLSAWTEYIPYHFRPNYHGVGTCSMMPKEMGGVVDNAARVYGVQGLRVIDGSIPPTQMSSHVMTVFYAMALKISDAILEDYASMQ
B2: NS3: GDH with a deletion to the 27th Ser and Met added to the 28st Ser (SEQ ID NO: 30) (protein)
chain: MSTDTYDYVIVGGGVAGLALASRISENKDVTVAVLESGPNANDRFVVYAPGMYGQAVGTDLCPLIPTTPQENMGNRSLTIATGRLLGGGSAINGLVWTRGGLKDYDAWEELGNPGWNGANLFKYFKKVENFTPPTPAQIEYGATYQKSAHGKKGPIDVSFTNYEFSQSASWNASLETLDFTALPDILNGTLAGYSTTPNILDPETVQRVDSYTGYIAPYTSRNNLNVLANHTVSRIQFAPKNGSEPLKATGVEWYPTGNKNQKQIIKARYEVIISSGAIGSPKLLEISGIGNKDIVSAAGVESLIDLPGVGSNMQDHVHAITVSTTNITGYTTNSVFVNETLAQEQREEYEANKTGIWATTPNNLGYPTPEQLFNGTEFVSGKEFADKIRNSTDEWANYYASTNASNVELLKKQYAIVASRYEENYLSPIEINFTPGYEGSGNVDLQNNKYQTVNHVLIAPLSRGYTHINSSDVEDHSVINPQYYSHPMDIDVHIASTKLAREIITASPGLGDINSGEIEPGMNITSEDDLRSWLSNNVRSDWHPVGTCAMLPKELGGVVSPALMVYGTSNLRVVDASIMPLEVSSHLMQPTYGIAEKAADIIKNFYKTQHKNQN
modifications: NS3
B3: NS1: GDH with a deletion to the 20th Ala and Met added to the 21st Gln (SEQ ID NO: 23) (protein)
chain: MQQDTNSSSTDTYDYVIVGGGVAGLALASRISENKDVTVAVLESGPNANDRFVVYAPGMYGQAVGTDLCPLIPTTPQENMGNRSLTIATGRLLGGGSAINGLVWTRGGLKDYDAWEELGNPGWNGANLFKYFKKVENFTPPTPAQIEYGATYQKSAHGKKGPIDVSFTNYEFSQSASWNASLETLDFTALPDILNGTLAGYSTTPNILDPETVQRVDSYTGYIAPYTSRNNLNVLANHTVSRIQFAPKNGSEPLKATGVEWYPTGNKNQKQIIKARYEVIISSGAIGSPKLLEISGIGNKDIVSAAGVESLIDLPGVGSNMQDHVHAITVSTTNITGYTTNSVFVNETLAQEQREEYEANKTGIWATTPNNLGYPTPEQLFNGTEFVSGKEFADKIRNSTDEWANYYASTNASNVELLKKQYAIVASRYEENYLSPIEINFTPGYEGSGNVDLQNNKYQTVNHVLIAPLSRGYTHINSSDVEDHSVINPQYYSHPMDIDVHIASTKLAREIITASPGLGDINSGEIEPGMNITSEDDLRSWLSNNVRSDWHPVGTCAMLPKELGGVVSPALMVYGTSNLRVVDASIMPLEVSSHLMQPTYGIAEKAADIIKNFYKTQHKNQN
modifications: NS1
B4: NS4: GDH with a deletion to the 27th Ser and the 28st Ser substituted by Met (SEQ ID NO: 32) (protein)
chain: MTDTYDYVIVGGGVAGLALASRISENKDVTVAVLESGPNANDRFVVYAPGMYGQAVGTDLCPLIPTTPQENMGNRSLTIATGRLLGGGSAINGLVWTRGGLKDYDAWEELGNPGWNGANLFKYFKKVENFTPPTPAQIEYGATYQKSAHGKKGPIDVSFTNYEFSQSASWNASLETLDFTALPDILNGTLAGYSTTPNILDPETVQRVDSYTGYIAPYTSRNNLNVLANHTVSRIQFAPKNGSEPLKATGVEWYPTGNKNQKQIIKARYEVIISSGAIGSPKLLEISGIGNKDIVSAAGVESLIDLPGVGSNMQDHVHAITVSTTNITGYTTNSVFVNETLAQEQREEYEANKTGIWATTPNNLGYPTPEQLFNGTEFVSGKEFADKIRNSTDEWANYYASTNASNVELLKKQYAIVASRYEENYLSPIEINFTPGYEGSGNVDLQNNKYQTVNHVLIAPLSRGYTHINSSDVEDHSVINPQYYSHPMDIDVHIASTKLAREIITASPGLGDINSGEIEPGMNITSEDDLRSWLSNNVRSDWHPVGTCAMLPKELGGVVSPALMVYGTSNLRVVDASIMPLEVSSHLMQPTYGIAEKAADIIKNFYKTQHKNQN
modifications: NS4
B5: NS2: GDH with a deletion to the 20th Ala and the 21st Gln substituted by Met (SEQ ID NO: 25) (protein)
chain: MQDTNSSSTDTYDYVIVGGGVAGLALASRISENKDVTVAVLESGPNANDRFVVYAPGMYGQAVGTDLCPLIPTTPQENMGNRSLTIATGRLLGGGSAINGLVWTRGGLKDYDAWEELGNPGWNGANLFKYFKKVENFTPPTPAQIEYGATYQKSAHGKKGPIDVSFTNYEFSQSASWNASLETLDFTALPDILNGTLAGYSTTPNILDPETVQRVDSYTGYIAPYTSRNNLNVLANHTVSRIQFAPKNGSEPLKATGVEWYPTGNKNQKQIIKARYEVIISSGAIGSPKLLEISGIGNKDIVSAAGVESLIDLPGVGSNMQDHVHAITVSTTNITGYTTNSVFVNETLAQEQREEYEANKTGIWATTPNNLGYPTPEQLFNGTEFVSGKEFADKIRNSTDEWANYYASTNASNVELLKKQYAIVASRYEENYLSPIEINFTPGYEGSGNVDLQNNKYQTVNHVLIAPLSRGYTHINSSDVEDHSVINPQYYSHPMDIDVHIASTKLAREIITASPGLGDINSGEIEPGMNITSEDDLRSWLSNNVRSDWHPVGTCAMLPKELGGVVSPALMVYGTSNLRVVDASIMPLEVSSHLMQPTYGIAEKAADIIKNFYKTQHKNQN
modifications: NS2

Tests used:
Format in all cases: biochemical
[1] = GOD activity (4-AA/TOOS/POD assay); conditions: 37° C., 131 mM D-glucose
Experimental: GDH activity was measured as described in Example 1. GOD activity was measured using 4-aminoantipyrine (4-AA) and N-ethyl-N-(2-hydroxy-3-sulfopropyl)-3-methylaniline (TOOS) as described below. To initiate a reaction, 30.0 mL of 100 mM phosphate buffer (pH 7.0), 6.0 mL of 833 mM D-glucose solution, 0.3 mL of 25 mM 4-AA solution, 0.3 mL of 40 mM TOOS solution, and 0.3 mL of 500 U/mL POD solution were mixed, of which 3.0 mL was transferred into a test tube and incubated at 37° C. for five minutes, and 0.1 mL of an enzyme sample solution was added. An increase in the absorbance at 555 nm (ΔA555) per minute due to the progress of the enzyme reaction was determined to calculate GOD activity according to the following formula.
The formula indicates 3.1 as the liquid volume (mL) of reaction reagent plus enzyme reagent, 32.8 as millimolar extinction coefficient (cm^2/μmol) under the activity assay conditions, 0.5 as the number of quinoneimine dye molecules generated when one H2O2 molecule is reduced, 0.1 as the liquid volume (mL) of an enzyme solution, 1.0 as the optical path length (cm) of a cell, ΔA555blank as an increase in the absorbance at 555 nm per minute when 10 mM acetate buffer, instead of an enzyme sample solution, is added to initiate a reaction, and df as a dilution factor.

[2] = GDH activity of purified enzymes (DCIP/PMS assay); conditions: purified enzyme
Experimental: Specifically, the activities of the flavin-bound GDHs are measured according to the following procedures. To initiate a reaction, 1.79 mL of 100 mM phosphate buffer (pH7.0), 0.08 mL of 1.25 M D-glucose solution, and 0.01 mL of 20 mM DCIP solution are mixed, followed by incubation at 37° C. for 5 minutes, and, subsequently, 0.02 mL of 20 mM PMS solution and 0.1 mL of an enzyme sample solution are added. Absorbance is measured at the initiation of the reaction and over time to determine a decrease in the absorbance at 600 nm (ΔA600) per minute due to the progress of the enzyme reaction and calculate flavin-bound GDH activity according to the following formula. […]
Solutions were mixed according to the following procedures, followed by absorbance measurement to examine GDH activity in the crude enzyme solution. […] A decrease in the absorbance at 600 nm (ΔA600) per minute due to the progress of the enzyme reaction after the initiation of the reaction was determined to calculate GDH activity according to the following formula. […]
GDH activity was measured as described in Example 1. GOD activity was measured using 4-aminoantipyrine (4-AA) and N-ethyl-N-(2-hydroxy-3-sulfopropyl)-3-methylaniline (TOOS) as described below. […] An increase in the absorbance at 555 nm (ΔA555) per minute due to the progress of the enzyme reaction was determined to calculate GOD activity according to the following formula.

[3] = Substrate specificity of GDHs produced by the E. coli transformant; conditions: according to Examples 3 and 5

Molecule	GOD activity [1]	GDH activity [2]	substrate specificity (in words) [3]
B1	9.38 U/mL	3.50 U/mL	
B2			almost comparable with that of the purified GDH obtained in Example 2
B3			almost comparable with that of the purified GDH obtained in Example 2
B4			almost comparable with that of the purified GDH obtained in Example 2
B5			almost comparable with that of the purified GDH obtained in Example 2
